Patent US20240050432A1 (Infinity Pharmaceuticals, Inc., priority 2020, published 2024)
Read-outs that look alike come from different tables or passages of the source.

Experiments:
[1] = test system: advanced urothelial carcinoma; experiment: Phase 2 randomized study of eganelisib + nivolumab vs nivolumab: response, PFS, OS; type: in vivo, human; details: for Median PFS: preliminary PFS
Text: (§1) Methods: Eligible patients (pts) with mUC who progressed on >1 platinum-based chemotherapy regimen and were CPI naïve were enrolled. […] Pts were stratified by baseline circulating monocytic myeloid derived suppressor cells (mMDSC) level. The primary endpoint was objective response rate (ORR) per RECIST v1.1 in pts with high baseline mMDSC levels. Other endpoints included ORR, progression free survival (PFS) and overall survival (OS) in all pts, PD-L1+/−pts and pts with hepatic adverse events (AE).
Advanced platinum refractory 2nd line urothelial cancer patients: Inclusion/exclusion criteria per CheckMate-275; MDSC* all corners (stratified); PD-L1** status all corners (non-stratified). • * Circulating mMDSC levels measured in baseline peripheral blood samples based on a Clinical Laboratory Improvement Amendments (CLIA)-certified flow cytometry assay (low [<22.3%] or high [≥22.3%] or ≥/<the median MDSC level of patients in this trial) • ** PD-L1 expression measured in baseline/archival tumor biopsies with Dako PD-L1 immunohistochemical 28-8 pharmDx kit approved for nivolumab in UC, except 2 biopsies tested with 22C3 PD-L1 antibody prior to study (Tumor Proportion Score≥1% cutoff for PD-L1 (+)) • Primary objective: ORR in MDSC High • Secondary objectives: ORR, TTR, DOR, and PFS in total population+MDSC subsets; safety; PK • Exploratory objectives: safety and efficacy in biomarker subsets, including PD-L1; OS
(§2) The dose for nivolumab is 480 mg Q4W.

[2] = Phase 2 urothelial carcinoma study: adverse events; type: in vivo, human
Text: as §1, §2

interferon alpha pathway = experiment: Peripheral blood gene set enrichment, day 15 vs. day 0; type: in vivo, human
Text: (§3) In all patients (day 15 vs. day 0): interferon gamma pathway: ES=0.81, p<0.01 (combination, n=31) vs. ES=0.51, p=0.28 (nivolumab, n=14); interferon alpha pathway: ES=0.87, p<0.01 (combination, n=31) vs. ES=0.53, p=0.39 (nivolumab, n=14). In PD-L1 negative patients (day 15 vs. day 0): interferon gamma pathway: ES=0.82, p<0.01 (combination, n=21) vs. ES=0.55, p=0.15 (nivolumab, n=5); interferon alpha pathway: ES=0.88, p<0.01 (combination, n=21) vs. ES=0.53, p=0.35 (nivolumab, n=5).

interferon gamma pathway = experiment: as above; type: in vivo, human
Text: as §3

[3] = test system: metastatic urothelial carcinoma (mUC); details: CheckMate-275, cited from earlier work
[4] = snapshot Jun. 26, 2021, PD-L1 negative patients
[5] = snapshot Jun. 26, 2021, all patients
[6] = preliminary analysis, N=33 vs N=16
[7] = preliminary analysis, N=33 vs N=16, 1 Grade 4
[8] = snapshot Jun. 26, 2021, N=33 vs N=16
[9] = PD-L1 negative patients, n=21 vs n=5

## Nivolumab + Placebo: placebo with nivolumab (PN), active control arm
[1]; PD-L1(−) patients, best change of target lesion
  patients with reduction of tumor burden: 17%
[1]; ITT
  Median PFS: 8.5 wks
[1]; PD-L1(+)
  Median PFS: 16.4 wks
[1]; PD-L1(−)
  Median PFS: 7.9 wks
[1]; snapshot Jun. 26, 2021
  patients for whom durability of OS benefit continued to mature: 18%
[1]; [4]
  median OS (mOS): 7.9 months
[1]; [5]
  median OS (mOS): 7.9 months
[2]; first 49 pts (33 EN, 16 PN)
  asthenia, all-Gr AE: 31%
  hepatotoxicity, Gr≥3 AE: 0%
  pruritis, all-Gr AE: 6%
  pyrexia, all-Gr AE: 0%
  rash, Gr≥3 AE: 0%
  rash, all-Gr AE: 6%
  transaminase elevation, Gr≥3 AE: 6%
  transaminase elevation, all-Gr AE: 6%
[2]; [6]
  Aspartate aminotransferase increased, Grade≥3 TEAE, Related to Eganelisib (Placebo in control arm): 0 n (%)
  Aspartate aminotransferase increased, Grade≥3 TEAE, Related to Nivolumab: 0 n (%)
  Asthenia, TEAE, All Causality: 4 (25.0) n (%)
  Asthenia, TEAE, Related to Eganelisib (Placebo in control arm): 2 (12.5) n (%)
  Asthenia, TEAE, Related to Nivolumab: 1 (6.3) n (%)
  Decreased appetite, TEAE, All Causality: 4 (25.0) n (%)
  Decreased appetite, TEAE, Related to Eganelisib (Placebo in control arm): 1 (6.3) n (%)
  Decreased appetite, TEAE, Related to Nivolumab: 0 n (%)
  Disease progression, Grade≥3 TEAE, All Causality: 6 (37.5) n (%)
  Disease progression, Grade≥3 TEAE, Related to Eganelisib (Placebo in control arm): 0 n (%)
  Disease progression, Grade≥3 TEAE, Related to Nivolumab: 0 n (%)
  Disease progression, TEAE, All Causality: 6 (37.5) n (%)
  Disease progression, TEAE, Related to Eganelisib (Placebo in control arm): 0 n (%)
  Disease progression, TEAE, Related to Nivolumab: 0 n (%)
  Hepatotoxicity, Grade≥3 TEAE, Related to Eganelisib (Placebo in control arm): 0 n (%)
  Hepatotoxicity, Grade≥3 TEAE, Related to Nivolumab: 0 n (%)
  Pruritus, TEAE, All Causality: 1 (6.3) n (%)
  Pruritus, TEAE, Related to Eganelisib (Placebo in control arm): 0 n (%)
  Pruritus, TEAE, Related to Nivolumab: 0 n (%)
  Pyrexia, TEAE, All Causality: 0 n (%)
  Pyrexia, TEAE, Related to Eganelisib (Placebo in control arm): 0 n (%)
  Pyrexia, TEAE, Related to Nivolumab: 0 n (%)
  Rash, TEAE, All Causality: 1 (6.3) n (%)
  Rash, TEAE, Related to Eganelisib (Placebo in control arm): 0 n (%)
  Rash, TEAE, Related to Nivolumab: 0 n (%)
[2]; [7]
  Aspartate aminotransferase increased, Grade≥3 TEAE, All Causality: 1 (6.3) n (%)
  Hepatotoxicity, Grade≥3 TEAE, All Causality: 0 n (%)
[2]; [8]
  Anemia, Grade≥3 TEAE, All Causality: 1 (6.3) n (%)
  Anemia, Grade≥3 TEAE, Related to Eganelisib (Placebo in control arm): 0 n (%)
  Anemia, Grade≥3 TEAE, Related to Nivolumab: 0 n (%)
  Aspartate aminotransferase increased, Grade≥3 TEAE, All Causality: 1 (6.3) n (%)
  Aspartate aminotransferase increased, Grade≥3 TEAE, Related to Eganelisib (Placebo in control arm): 1 (6.3) n (%)
  Aspartate aminotransferase increased, Grade≥3 TEAE, Related to Nivolumab: 1 (6.3) n (%)
  Asthenia, TEAE, All Causality: 5 (31.3) n (%)
  Asthenia, TEAE, Related to Eganelisib (Placebo in control arm): 2 (12.5) n (%)
  Asthenia, TEAE, Related to Nivolumab: 1 (6.3) n (%)
  Decreased appetite, TEAE, All Causality: 5 (31.3) n (%)
  Decreased appetite, TEAE, Related to Eganelisib (Placebo in control arm): 1 (6.3) n (%)
  Decreased appetite, TEAE, Related to Nivolumab: 0 n (%)
  Disease progression, Grade≥3 TEAE, All Causality: 4 (25.0) n (%)
  Disease progression, Grade≥3 TEAE, Related to Eganelisib (Placebo in control arm): 0 n (%)
  Disease progression, Grade≥3 TEAE, Related to Nivolumab: 0 n (%)
  Disease progression, TEAE, All Causality: 4 (25.0) n (%)
  Disease progression, TEAE, Related to Eganelisib (Placebo in control arm): 0 n (%)
  Disease progression, TEAE, Related to Nivolumab: 0 n (%)
  Hepatotoxicity, Grade≥3 TEAE, All Causality: 0 n (%)
  Hepatotoxicity, Grade≥3 TEAE, Related to Eganelisib (Placebo in control arm): 0 n (%)
  Hepatotoxicity, Grade≥3 TEAE, Related to Nivolumab: 0 n (%)
  Pruritus, TEAE, All Causality: 1 (6.3) n (%)
  Pruritus, TEAE, Related to Eganelisib (Placebo in control arm): 0 n (%)
  Pruritus, TEAE, Related to Nivolumab: 0 n (%)
  Pyrexia, TEAE, All Causality: 0 n (%)
  Pyrexia, TEAE, Related to Eganelisib (Placebo in control arm): 0 n (%)
  Pyrexia, TEAE, Related to Nivolumab: 0 n (%)
  Rash, TEAE, All Causality: 1 (6.3) n (%)
  Rash, TEAE, Related to Eganelisib (Placebo in control arm): 0 n (%)
  Rash, TEAE, Related to Nivolumab: 0 n (%)
[2]; snapshot Jun. 26, 2021, of discontinued patients
  Discontinued treatment: Adverse event, unrelated to treatment: 0 n

## nivolumab
[1]; [4]
  overall survival probability at one year landmark: 17%
[1]; [5]
  overall survival probability at one year landmark: 32%
Interferon alpha pathway; [9]
  gene set Enrichment Score (ES), interferon alpha pathway: 0.53
Interferon alpha pathway; all patients, n=31 vs n=14
  gene set Enrichment Score (ES), interferon alpha pathway: 0.53
Interferon gamma pathway; [9]
  gene set Enrichment Score (ES), interferon gamma pathway: 0.55
Interferon gamma pathway; all patients, n=31 vs n=14
  gene set Enrichment Score (ES), interferon gamma pathway: 0.51
[3]; All (n = 270)
  Median OS (95% CI): 8.6 (6.1-11.3) mo.
  Median PFS (95% CI): 1.9 (1.9, 2.3) mo.
  ORR (95% CI): 20 (16-26) %
[3]; PD-L1 < 1% (n = 146)
  Median OS (95% CI): 6.0 (4.4-8.1) mo.
  Median PFS (95% CI): 1.9 (1.7, 2.0) mo.
  ORR (95% CI): 16 (10-23) %
[3]; PD-L1 ≥ 1% (n = 124)
  Median OS (95% CI): 11.9 (9.1-19.1) mo.
  Median PFS (95% CI): 3.5 (1.9, 3.7) mo.
  ORR (95% CI): 26 (18-34) %
